Measured values reported in the supplement of paper PMC6757056.
± gives the standard deviation of the averaged measurements.

B1: library; a variant is named by its letters at N, in order (parent)
chain: GCUGUCACCGGUGUAUUACCCUAGUGGUCGACCGGUCUGAUGAGUCUNNNNNNAGACGAAACAGC

What was measured:
[1] = variants of: B1; experiment: FACS-Seq fitted mean relative fluorescence mCherry/BFP without ligand (log10 relative fluorescence); ligand: hypoxanthine (xanthine aptamer); higher = higher reporter protein expression; conditions: HEK293T, ligand present: no
In short: (§1)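 After lentiviral transduction, HEK293T library cells bearing an mCherry ribozyme-switch reporter and an EF1α-BFP marker were enriched. They were then held for 48 h with or without ligand and sorted by mCherry/BFP into 6 bins, and each bin's genomic DNA was PCR-amplified, barcoded and MiSeq-sequenced. Fluorescence is expressed as a normalized fitted mean: the normal mean of log10(mCherry/BFP) bin counts, scaled to five spiked-in control ribozymes.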

[2] = variants of: B1; experiment: normalized RNA/DNA level with ligand (relative to sTRSVctl = 100) (log10 (% of sTRSVctl)); ligand: hypoxanthine (xanthine aptamer); higher = less ribozyme self-cleavage, higher mRNA level; conditions: ligand concentration (+) RNA-Seq: 5 mM, HEK293T, reporter: mCherry (pCS4076), ligand present: yes
In short: (§2)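 For each 6-well well, 4 µg of library plasmid encoding mCherry-linked ribozyme switches, or eGFP-linked ones in some ligand experiments, was transfected into HEK293T. Any ligand was added 1 h before transfection, and RNA was extracted with EDTA 72 h after it, then reverse-transcribed, amplified, barcoded and sequenced. RNA level was obtained by dividing RNA reads by DNA reads, normalizing to a spiked-in non-cleaving sequence or to the top sequences, then scaling and log-transforming. The top set was 25 sequences, scaling was ×100 with log10, and ≥100 DNA reads were required.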

[3] = variants of: B1; experiment: normalized RNA/DNA level without ligand (relative to sTRSVctl = 100) (log10 (% of sTRSVctl)); ligand: hypoxanthine (xanthine aptamer); higher = less ribozyme self-cleavage, higher mRNA level; conditions: HEK293T, reporter: mCherry (pCS4076), ligand present: no
In short: as §2

[4] = variants of: B1; experiment: FACS-Seq fitted mean relative fluorescence mCherry/BFP with ligand (log10 relative fluorescence); ligand: hypoxanthine (xanthine aptamer); ligand concentration (+) FACS-Seq: 5 mM; higher = higher reporter protein expression; conditions: HEK293T, ligand present: yes
In short: as §1

## AGAAGA
[1]
  FACS-Seq fitted mean (log10): 0.156 ± 0.021
[2]
  normalized RNA/DNA level with ligand (log10): 1.92 ± 0.029
[3]
  normalized RNA/DNA level without ligand (log10): 1.525 ± 0.013
[4]
  FACS-Seq fitted mean (log10): 0.466 ± 0.016

## AGAAAC
[1]
  FACS-Seq fitted mean (log10): 0.541 ± 0.013
[2]
  normalized RNA/DNA level with ligand (log10): 1.93 ± 0.055
[3]
  normalized RNA/DNA level without ligand (log10): 1.796 ± 0.01
[4]
  FACS-Seq fitted mean (log10): 0.58 ± 0.023

## AGAAAU
[1]
  FACS-Seq fitted mean (log10): 0.552 ± 0.024
[2]
  normalized RNA/DNA level with ligand (log10): 1.93 ± 0.036
[3]
  normalized RNA/DNA level without ligand (log10): 1.83 ± 0.034
[4]
  FACS-Seq fitted mean (log10): 0.414 ± 0.021

## AGAAAA
[1]
  FACS-Seq fitted mean (log10): 0.559 ± 0.023
[2]
  normalized RNA/DNA level with ligand (log10): 1.89 ± 0.023
[3]
  normalized RNA/DNA level without ligand (log10): 1.78 ± 0.048
[4]
  FACS-Seq fitted mean (log10): 0.133 ± 0.027

## UGACGA
[1]
  FACS-Seq fitted mean (log10): 0.285 ± 0.037
[2]
  normalized RNA/DNA level with ligand (log10): 1.94 ± 0.023
[3]
  normalized RNA/DNA level without ligand (log10): 1.581 ± 0.0051
[4]
  FACS-Seq fitted mean (log10): 0.593 ± 0.023

## UGACGG
[1]
  FACS-Seq fitted mean (log10): 0.484 ± 0.018
[2]
  normalized RNA/DNA level with ligand (log10): 1.9 ± 0.022
[3]
  normalized RNA/DNA level without ligand (log10): 1.486 ± 0.01
[4]
  FACS-Seq fitted mean (log10): 0.646 ± 0.032

## UGACGU
[1]
  FACS-Seq fitted mean (log10): -0.0405 ± 0.16
[2]
  normalized RNA/DNA level with ligand (log10): 1.91 ± 0.021
[3]
  normalized RNA/DNA level without ligand (log10): 1.57 ± 0.064
[4]
  FACS-Seq fitted mean (log10): 0.226 ± 0.05

## ACUUAG
[1]
  FACS-Seq fitted mean (log10): 0.227 ± 0.048
[2]
  normalized RNA/DNA level with ligand (log10): 1.81 ± 0.025
[3]
  normalized RNA/DNA level without ligand (log10): 1.52 ± 0.061
[4]
  FACS-Seq fitted mean (log10): 0.503 ± 0.042

## ACUUAA
[1]
  FACS-Seq fitted mean (log10): 0.504 ± 0.046
[2]
  normalized RNA/DNA level with ligand (log10): 1.933 ± 0.0065
[3]
  normalized RNA/DNA level without ligand (log10): 1.787 ± 0.01
[4]
  FACS-Seq fitted mean (log10): 0.596 ± 0.075

## GCUUCG
[1]
  FACS-Seq fitted mean (log10): 0.0523 ± 0.089
[2]
  normalized RNA/DNA level with ligand (log10): 1.929 ± 0.006
[3]
  normalized RNA/DNA level without ligand (log10): 1.59 ± 0.029
[4]
  FACS-Seq fitted mean (log10): 0.504 ± 0.069

## CCUGUG
[1]
  FACS-Seq fitted mean (log10): 0.676 ± 0.039
[2]
  normalized RNA/DNA level with ligand (log10): 1.97 ± 0.026
[3]
  normalized RNA/DNA level without ligand (log10): 1.86 ± 0.051
[4]
  FACS-Seq fitted mean (log10): 0.685 ± 0.086

## CCUGUA
[1]
  FACS-Seq fitted mean (log10): 0.473 ± 0.019
[2]
  normalized RNA/DNA level with ligand (log10): 1.892 ± 0.015
[3]
  normalized RNA/DNA level without ligand (log10): 1.89 ± 0.041
[4]
  FACS-Seq fitted mean (log10): 0.515 ± 0.006

## ACUACG
[1]
  FACS-Seq fitted mean (log10): 0.398 ± 0.086
[2]
  normalized RNA/DNA level with ligand (log10): 1.93 ± 0.071
[3]
  normalized RNA/DNA level without ligand (log10): 1.471 ± 0.0099
[4]
  FACS-Seq fitted mean (log10): 0.666 ± 0.077

## ACUACU
[1]
  FACS-Seq fitted mean (log10): 0.265 ± 0.031
[2]
  normalized RNA/DNA level with ligand (log10): 1.93 ± 0.069
[3]
  normalized RNA/DNA level without ligand (log10): 1.821 ± 0.01
[4]
  FACS-Seq fitted mean (log10): 0.443 ± 0.046

## UCUAAG
[1]
  FACS-Seq fitted mean (log10): 0.59 ± 0.091
[2]
  normalized RNA/DNA level with ligand (log10): 1.9502 ± 0.0012
[3]
  normalized RNA/DNA level without ligand (log10): 1.7 ± 0.088
[4]
  FACS-Seq fitted mean (log10): 0.678 ± 0.094

## UCUAAA
[1]
  FACS-Seq fitted mean (log10): 0.325 ± 0.034
[2]
  normalized RNA/DNA level with ligand (log10): 1.96 ± 0.035
[3]
  normalized RNA/DNA level without ligand (log10): 1.79 ± 0.062
[4]
  FACS-Seq fitted mean (log10): 0.0897 ± 0.011

## UCUAAU
[1]
  FACS-Seq fitted mean (log10): 0.308 ± 0.028
[2]
  normalized RNA/DNA level with ligand (log10): 1.92 ± 0.022
[3]
  normalized RNA/DNA level without ligand (log10): 1.79 ± 0.039
[4]
  FACS-Seq fitted mean (log10): 0.511 ± 0.032

## CGAGAA
[1]
  FACS-Seq fitted mean (log10): 0.492 ± 0.014
[2]
  normalized RNA/DNA level with ligand (log10): 1.907 ± 0.0062
[3]
  normalized RNA/DNA level without ligand (log10): 1.58 ± 0.0075
[4]
  FACS-Seq fitted mean (log10): 0.65 ± 0.015
